Experimental data: PMC8545432

Columns and labels:
[1] = molecular target: AcrIIA22 2-amino acid C-terminal truncation mutant (thrombin-cleaved) (unnamed clostridial genus CAG-217 (human gut metagenome)); experiment: SEC; thrombin-cleaved AcrIIA22 variants; Superdex75 16/60; 25 mM Tris pH 7.5, 200 mM NaCl; size against protein standards
[2] = molecular target: AcrIIA22 (thrombin-cleaved, from the N-terminal His6 construct) (unnamed clostridial genus CAG-217 (human gut metagenome)); experiment: as above

Row | stoichiometry N [1] | stoichiometry N [2] | Substance
1 | 2 | – | AcrIIA22 2-amino acid C-terminal truncation mutant (thrombin-cleaved) (domain or fragment)
2 | – | 4 | AcrIIA22 (thrombin-cleaved, from the N-terminal His6 construct) (natural protein)
